# Experimental data reported in patent US7732178B2, “Laccase enzymes and their uses” (AB Enzymes Oy, priority 2004, dated 2010).
# B1: CtLcc1: Chaetomium thermophilum ALKO 4265 laccase, SEQ ID NO: 47, produced in Trichoderma reesei (protein)
# chain: MKFLTYATALLGALTAVVGAIPTRSGTKKKYIRDGPGPCHTPSNRACWAPGFDINTDYEVNTPNTGVTRNYTLTLTEEDNWTGPDGVVKEKIMLVNGKTLGPTIEANWGDWIEVKVINNLLTNGTSIHWHGIHQKGSNLHDGANGVTECPIPPNGGQRTYRFRAQQYGTSWYHSHFSAQYGNGIVGPIVIHGPASLPYDIDLGPFPLTDYYYKSADELVRHTQNNGPPFSDNVLFNGTGVHPQTGHGQYAKVTLTPGKRHRLRIINMSTENHFQVSLVGHQFTVIAADMVPVHSYTTDSLFLAVGQRYDVTIDASQTPGNYWFNVTFGGGFACGGSFNPNPAAIFHYEGAPDALPTDPGVPPRDHNCLDTLDLVPVVPRNVQVNQFVKKPENTLPVELSLGGTPLFVWKVNGSAIDVDWGNPVLQYVMDRNTSYRQADNIVEVNGVNQWTYWLIENDPNGAFSLPHPMHLHGHDFLIVGRSPDVPPGSNQRYNFDPATDIYRLRGQNPTRRDVAMLPAGGWLLLAFLTDNPGAWLFHCHIAWHVSGGLSVDFLERPNDLRNSILQHDKDEFNRVCNEWRTYWPNSPHPKIDSGLKHRWVEESEWLVR
# modifications: Chaetomium thermophilum ALKO4265; (1)..(607) Deduced amino acid sequence of Chaetomium thermophilum ALKO4265 CtLcc1
# Experiments:
# [1] = Specific activity towards ABTS; assay type: biochemical; conditions: 25 mM succinate buffer pH 4.5, 25° C.
# Method: The activity assay was carried out in accordance with the method developed by Niku-Paavola et al. (1988). The sample was diluted with 0.025 M succinate buffer, pH 4.5. […] The activity is expressed as nano katals.
# (§1) Specific activities of the purified T. arenaria and C. thermophilum laccases were determined towards different laccase substrates.
# [2] = Specific activity towards di-methoxy-phenol (DMP); assay type: biochemical; conditions: 25 mM MES buffer, pH 5.5
# Method: as §1
# [3] = Specific activity towards syringaldazine; assay type: biochemical; conditions: 25 mM MES buffer, pH 5.5
# Method: as §1
# [4] = Isoelectric focusing (pI); assay type: physicochemical; conditions: pH range 3-9
# How it was run: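 Purified Thielavia arenaria and Chaetomium thermophilum laccases resolved by isoelectric focusing over pH 3-9. pI read from focused band position.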
# [5] = Redox potential of T1 copper, photometric copper titration; assay type: physicochemical; conditions: 0.1 M KH2PO4 (pH 6.0)
# Method: The purified recombinant Thielavia and Chaetomium laccases were characterized in terms of pH optimum, thermal stability, and pI as described in Example 2. The molecular weight was determined by MALDI-TOF mass spectrometry on a Ultraflex™ time-of-flight instrument (BrukerDaltonics, Germany) as previously described (Palonen et al., 2003). The redox-potentials of the T1 coppers of for CtLcc, and TaLcc2 laccases were determined by photometric copper titration in 0.1 M KH2PO4 (pH 6.0) as described by Xu et al. (1996) using the redox titrant couple K3Fe(CN)6/K4Fe(CN)6. The redox potential of TaLcc1 was determined with a combined Pt—AgCl/KCl microelectrode at pH 5.0 according to Sigoillot et al (2004). The characterization results are collected to Table 14.
# [6] = Denim bleaching at different pH values; design: key to After laccase treatment L* / After laccase treatment b* / Increase of L*: CIE L*a*b* colour coordinates (illuminant D65), Minolta reflectance; conditions: for After laccase treatment L* / After laccase treatment b* / Increase of L*: face side of denim, 30 min, 50° C.
# Method: Lee Cooper jeans (MASI Company Oy, Finland) that were desized and treated with neutral ECOSTONE® cellulase were used as test material. Laccase treatments were performed in LP-2 Launder Ometer as follows. About 10 g of denim swatches (15×14 cm) were loaded into 1.2 liter containers containing 200 ml Mc Ilvaine's citrate phosphate buffer pH 5, 6 or 7 and the containers were temperated. Enzyme with or without the mediator (methyl syringate, DeniLite II Assist, Novozymes) was added as laccase activity units. Enzyme was dosed 200 nkat/g and the mediator 10 mg/g on the weight of fabric. […] The Launder Ometer was run at 50° C. for 30 min and after that the temperature in Launder was raised to 80° C. for 10 min. The swatches were carefully rinsed with warm water, dried half-dry in a tumbler and after that air dried.
# The bleaching effect was evaluated by measuring the colour as reflectance values with the Minolta Chromameter CM 1000 (Minolta Co.) using L*a*b* color space coordinates (illuminant D65). The colour from both sides of the swatches was measured before and after the laccase treatment. Each measurement was the average of several measurements.
# [7] = Stain removal, grass soiling; design: key to Grass L* / Grass a* / Grass b*: CIE L*a*b* color coordinates from reflectance; conditions: for Grass L* / Grass a* / Grass b*: 60 min, pH 6
# How it was run: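 Soiled swatches treated in McIlvaine citrate-phosphate buffer pH 6 for 60 min at 40, 50 or 60 °C. Laccase 200 nkat/g ± methyl syringate mediator 10 mg/g fabric (also 20 nkat/g and 2 mg/g at 40 °C). Stain removal from L*a*b* reflectance before versus after treatment.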
# [8] = pH 5, enzyme 200 nkat/g without the mediator, or mediator 10 mg/g alone
# [9] = pH 5, enzyme 200 nkat/g, mediator 10 mg/g
# [10] = pH 6, enzyme 200 nkat/g without the mediator, or mediator 10 mg/g alone
# [11] = pH 6, enzyme 200 nkat/g, mediator 10 mg/g
# [12] = pH 7, enzyme 200 nkat/g without the mediator, or mediator 10 mg/g alone
# [13] = pH 7, enzyme 200 nkat/g, mediator 10 mg/g
# [14] = 40° C., enzyme 20 nkat/g + mediator 2 mg/g (Mediator only: 0 nkat/g)
# [15] = 40° C., enzyme 200 nkat/g + mediator 10 mg/g (Mediator only: 0 nkat/g)
# [16] = 40° C., enzyme 200 nkat/g, mediator 0 mg/g
# [17] = 60° C., enzyme 200 nkat/g + mediator 10 mg/g (Mediator only: 0 nkat/g)
# [18] = 60° C., enzyme 200 nkat/g, mediator 0 mg/g
molecule,measurement,setting,value
B1,Specific activity on ABTS,[1],705 nkat/mg
same,Specific activity on DMP,[2],290 nkat/mg
same,Specific activity on syringaldazin,[3],400 nkat/mg
same,pI,[4],4.0-4.3
same,E^0,[5],480 mV
same,After laccase treatment L*,[6]; [8],28.88
same,After laccase treatment b*,[6]; [8],−18.65
same,Increase of L*,[6]; [8],0.46
same,After laccase treatment L*,[6]; [9],35.07
same,After laccase treatment b*,[6]; [9],−18.38
same,Increase of L*,[6]; [9],5.91
same,After laccase treatment L*,[6]; [10],28.83
same,After laccase treatment b*,[6]; [10],−18.53
same,Increase of L*,[6]; [10],−0.13
same,After laccase treatment L*,[6]; [11],40.08
same,After laccase treatment b*,[6]; [11],−17.18
same,Increase of L*,[6]; [11],11.19
same,After laccase treatment L*,[6]; [12],29.32
same,After laccase treatment b*,[6]; [12],−18.52
same,Increase of L*,[6]; [12],0.73
same,After laccase treatment L*,[6]; [13],36.69
same,After laccase treatment b*,[6]; [13],−17.88
same,Increase of L*,[6]; [13],8.31
same,decolorization of indigo dye of denim compared to DeniLite II Base,"[6]; pH values 6 and 7, with mediator",more efficient
same,Grass L*,[7]; [14],79.94
same,Grass a*,[7]; [14],−1.20
same,Grass b*,[7]; [14],16.17
same,Grass L*,[7]; [15],79.74
same,Grass a*,[7]; [15],0.17
same,Grass b*,[7]; [15],16.48
same,Grass L*,[7]; [16],80.17
same,Grass a*,[7]; [16],−4.14
same,Grass b*,[7]; [16],17.45
same,Grass L*,[7]; [17],79.92
same,Grass a*,[7]; [17],−1.15
same,Grass b*,[7]; [17],18.55
same,Grass L*,[7]; [18],79.04
same,Grass a*,[7]; [18],−3.69
same,Grass b*,[7]; [18],18.12
same,removal of grass soiling with the mediator,"[7]; CtLcc1 at 60° C., TaLcc2 at 50° C.",effective
